From US20250144213A1 (UTC THERAPEUTICS SHANGHAI, published 2025)

T1: CD123-Fc recombinant protein (human, UniProt P26951 19-305)
T1 construct: Soluble staining reagent; also called CD123-Fc protein; not shown: Fc part
T1 sequence (looked up): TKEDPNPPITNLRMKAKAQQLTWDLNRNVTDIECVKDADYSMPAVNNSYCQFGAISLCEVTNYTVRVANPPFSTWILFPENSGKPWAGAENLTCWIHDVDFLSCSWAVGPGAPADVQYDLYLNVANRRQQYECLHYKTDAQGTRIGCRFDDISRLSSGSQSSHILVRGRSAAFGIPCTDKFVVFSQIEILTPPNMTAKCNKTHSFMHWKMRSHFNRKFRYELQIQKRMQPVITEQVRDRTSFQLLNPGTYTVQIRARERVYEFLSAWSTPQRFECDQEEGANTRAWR

T2: BCMA-Fc recombinant protein (human, UniProt Q02223 1-54)
T2 construct: Soluble staining reagent, 5 µg/ml; not shown: Fc part
T2 sequence (looked up): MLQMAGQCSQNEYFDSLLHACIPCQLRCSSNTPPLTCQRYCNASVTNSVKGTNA


Columns and labels:
[1] = target: T1, CD123-Fc recombinant protein; experiment: FACS staining of CAR-T cells with CD123-Fc recombinant protein (FIG. 28)
[2] = target: T2, BCMA-Fc recombinant protein; experiment: flow cytometry: lentivirally transduced CAR-T cells stained with 5 µg/ml BCMA-Fc, detected with anti-human IgG Fc (FIG. 17B)

Row | Binder | binding result [1] | binding result [2]
1 | anti-CD123 scFv-C30 (scFv, also called C30 scFv) scFv: AIRLTQSPSSLSASVGDRVTITCQASQNINNYLNWYQQKSGKAPKLLIYDASNLEAGVPSRFSGSASGTDFTFTISSLQPEDIATYYCQQNDNLPLTFGQGTRLEIKGGGGSGGGGSGGGGSEVQLVESGGGVVRPGGSLRLSCAASGFTFGDYGMSWVRQAPGKGLEWVSGINWNGGSTGYADSVKGRFTISRDNAKNSLYLQMNSLRAEDTALYYCARDRAPDYGDYLQVGTTDYWGQGTLVTVSS | binds | 
2 | anti-CD123 scFv-C27 (scFv, also called C27 scFv) scFv: EIVLTQSPGTVSLSPGERATLSCRASQRVSATYLAWYQQKPGQAPRLLMYGGSRRATGIPDRFSGSGSGTDFTLTIRRLEPEDSAVYYCQQYGSSPLTFGGGTKLEIKGGGGSGGGGSGGGGSQVQLVQSGSELKKPGASVKVSCKASGYTFTSYGISWVRQAPGQGLEWMGWISAYNGNTNYAQKLQGRVTMTTDTSTSTAYMELRSLRSDDTAVYYCARDPYDDYGGNSRDEEDAFDIWGQGTTVTVSS | binds | 
3 | anti-BCMA scFv BCMA32 (scFv, also called BCMA32 scFv; BCMA32 CAR) scFv: QSALTQPASVSGSPGQSITISCTGTSSDVGGYNYVSWYQQHPGKAPKLMIYDVSKRPSGVSNRFSGSKSGNTASLTISGLQAEDEADYYCSSYTSSSTVVFGGGTKLTVLGGGGSGGGGSGGGGSQVQLQESGAEVKKPGSSVKVSCKASGGTFSRYAISWVRQAPGQGLEWMGGIIPFFGTSDYAQKFQGRVTITADESTSTAYMDLSRLRSEDTAVYYCAVRVATTGTGFYYAMDVWGQGTTVTVSS |  | binds
4 | anti-BCMA scFv BCMA34 (scFv, also called BCMA34 scFv; BCMA34 CAR) scFv: QPGLTQPPSVSKGLRQTATLTCTGNSNNVGNQGAAWLQQHQGHPPKLLSYRNNNRPSGISERFSASRSGNTASLTITGLQPEDEADYYCSAWDSSLSARVFGGGTKLTVLGGGGSGGGGSGGGGSQVQLVQSGAEVKKPGASVKVSCKTSGYTFSNPFVHWVRQAPGQGLEWVGIINLSGGDTLYAQKFQGGVTMTRDTSTNTAYMELTSLTFEDTAVYYCARDQAGFGDSAYWGQGTLVTVSS |  | binds
5 | anti-CD123 scFv-C32 (scFv, also called C32 scFv) scFv: QSVVTQPPSASGTPGQRVTISCSGSSSNIEGNTVSWYQQFPGAAPKLLIYSNSYRASGVPDRFSGSKSGTSASLAISELQSEDEADYYCSAWDDSLNGPVFGGGTKVTVLGGGGSGGGGSGGGGSEVQLVESGGGLVQPGGSLRLSCAASGFTFTSYAMNWVRQAPGKGLEWVSDISSSSSYIYYADSVKGRFTISRDNAKNSLYLQMNSLRAEDTAVYYCARDLYSGYDYGYYYGMDVWGQGTTVTVSS | binds | 
6 | anti-BCMA scFv BCMA27 (scFv, also called BCMA27 scFv; BCMA27 CAR) scFv: QSALTQPPSASGSPGQSVTISCTGSRSNVGSYNDVSWYQQHPGKAPKLIIYDVDKRPAGVPDRFSGSKSGNTASLTVSGLQAEDDADYYCSSYGGTYSLFVFGTGTELTVLGGGGSGGGGSGGGGSEVQLVESGGDLVQPGGSLRLSCAASGFTFSSYGMHWVRQAPGKGLEWVAVISYDGSNKYYADSVKGRFTISRDNSKNTLYLQMNSLRAEDTAVYYCAKEEFYGDSSYGMDVWGQGTTVTVSS |  | binds
7 | anti-BCMA scFv BCMA33 (scFv, also called BCMA33 scFv; BCMA33 CAR) scFv: QSALTQPPSASGSPGQSVTISCTGTSSDVGGYNYVSWYQQHPGKAPKLMIYEVSKRPSGVPDRFSGSKSGNTASLTVSGLQAEDEADYFCSSYAGSNNFVVFGGGTKLTVLGGGGSGGGGSGGGGSEVQLVESGGGLVQPGRSLRLSCAASGFTFDDYAMHWVRQAPGKGLEWVSGISWNSGSIGYADSVKGRFTISRDNAKNSLYLQMNSLRAEDTALYYCAKVGASAALGAFDIWGQGTMVTVSS |  | binds
8 | anti-CD123 scFv-C34 (scFv, also called C34 scFv) scFv: QSALTQPPSASGSPGQSVTISCTGTRSDVGAYNYVSWYQHHPGKAPKLMLYDVSKRPSGVSDRFSGSKSGNTASLTVSGLQSEDEANYYCSSYAGSGKYVFGSGTELTVLGGGGSGGGGSGGGGSEVHLVESGGGLVKPGGSLRLSCAASGFTFSDTWMSWVRQAPGKGLEWVGRIKSKTDGGTTNYAAPVKGRFTISRDDSKTTLFLQMNSLKTEDTAVYYCTGGDYPLFAYWGQGALVTVSS | binds | 
9 | anti-BCMA scFv BCMA31 (scFv, also called BCMA31 scFv; BCMA31 CAR) scFv: QSALTQPPSASGSPGQSVTISCTGTSSDVGTYNYVSWYQQHPGKAPKLMIYDVNQRPSGVPDRFSGSKSGNTASLTVSGLQAEDEADYYCSSYGGSNNLVFGGGTKVTVLGGGGSGGGGSGGGGSEVQLVESGGGLIQPGGSLRLSCAASGFTFSSYWMSWVRQSPGKGLEWVANIKPDGSDKYYVDSVKGRFTISRDNAKNSLDLQMNSLRGEDTAIYYCARGATTYGSWGQGTLVTVSS |  | binds
10 | anti-BCMA scFv BCMA30 (scFv, also called BCMA30 scFv; BCMA30 CAR) scFv: DIQMTQSPSFLSASVGDRVTITCRASQGISSYLAWYQQKPGKAPKLLIYAASTLQSGVPSRFSGSGSGTEFTLTISSLQPEDFATYYCQQLNSYPPWTFGQGTKVEIKGGGGSGGGGSGGGGSQVQLVQSGAEVKKPGESLKISCKGSGYRFTSYWIGWVRQMPGKGLEWMGIIYPGDSDTRYSPPFQGQVTISADKSIDTAYLQWSSLKASDTAMYYCARLDASGSQRGGMDVWGQGTTVTVSS |  | binds
11 | anti-BCMA scFv BCMA24 (scFv, also called BCMA24 scFv; BCMA24 CAR) scFv: QSVLTQPPSASGTPGQRVTISCSGSSSNIGSYSVNWYQQIPGTAPKLLIYSNNQRPSGVPDRFSGSKSGTSASLAISGLQSEDEADYSCAAWDDSLNGVVFGGGTKLTVLGGGGSGGGGSGGGGSQVQLVQSGAEVKKPGSSVKVSCKASGGTFSSYAISWVRQAPGQGLEWMGGIIPIFGTANYAQKFQGRVTITADESTSTAYMELSSLRSEDTAVYYCARGSFYSSVNVWGQGTTVTVSS |  | binds
12 | anti-BCMA scFv BCMA28 (scFv, also called BCMA28 scFv; BCMA28 CAR) scFv: QSALTQPPSVSEAPRQRVTISCSGSSSNIGQNAVNWYQKLPGKAPKLLIYYNDLVSSGVSDRFSGSKSGTSASLAISGLQSEDEADYYCATWDDSLNGVVFGGGTKVTVLGGGGSGGGGSGGGGSQVQLVQSGPGLVKPSQTLSLTCAISGDSVSSNSAAWNWIRQSPSRGLEWLGRTYYRSKWYNDYAVSVKSRITINPDTSKNQFSLQLNSVTPEDTAVYYCARDYYYGMDVWGQGTTVTVSS |  | binds
13 | anti-BCMA scFv BCMA22 (scFv, also called BCMA22 scFv; BCMA22 CAR) scFv: QSALTQPASVSGSPGQSITISCTGTSSDVGGYNYVSWYQQHPGKAPKLMIYEVTNRPSGVSNRFSGSKSGNTASLTISGLQAEDEAHYYCISYTSSSTLDYVFGTGTKVTVLGGGGSGGGGSGGGGSEVQLVESGPGLVKPSGTLSLTCAVSGGSISSSNWWSWVRQPPGKGLEWIGEIYHSGSTNYNPSLKSRVTISVDKSKNQFSLKLSSVTAADTAVYYCARVGSGYSYGYGDRVLDYWGQGTLVTVSS |  | binds
14 | anti-CD123 scFv-C33 (scFv, also called C33 scFv) scFv: DIRLTQSPSSLSASVGDTITITCRASQDISSWIAWYQQKPGTAPRLLIYAASSLQSGVPSRFSGSGSGTDFTLTINSLHPEDFATYYCQQGSTFPLAFGGGTKVEIKGGGGSGGGGSGGGGSQVQLVQSGAEVKKPGSSVKVSCKASGGTFSSYAISWVRQAPGQGLEWMGGIIPIFGTANYAQKFQGRVTITADESTSTAYMELSSLRSEDTAVYYCARGLDNWNDVGWFDPWGQGTLVTVSS | binds | 
15 | anti-BCMA scFv BCMA23 (scFv, also called BCMA23 scFv; BCMA23 CAR) scFv: QSALTQPPSASGTPGQRVTISCSGSSPNIGGNSVNWYQQLPGTAPKLLMYTNNQRPSGVPDRFSGSKSGTSASLAISGLQSEDEADYYCAAWDDSLNGVVFGGGTKLTVLGGGGSGGGGSGGGGSQVQLVQSGAEVKKPGESLKISCKGSGYSFTSYWIGWVRQMPGKGLEWMGIIYPGDSDTRYSPSFQGQVTISADKSISTAYLQWSSLKASDTAMYYCARRGGALDYWGQGTLVTVSS |  | binds
